Test results published in patent US20070148180A1, “Peptide-immunoglobulin-conjugate” (priority 2005, published 2007).
pKd: −log10 of the molar value. No end group written: not given here.

Experiments:
[1] = tested on: live NL-Bal viruses; assay type: cell-based, HIV-1; conditions: live NL-Bal virus, JC53-BL cells, luciferase activity
[2] = biological target: biotinylated HR1 peptide Biotin-T-2324 (HIV-1 gp41 HR1) (Human immunodeficiency virus type 1 group M subtype B, UniProt P04582, G556A); assay: Binding affinity of HR2 containing polypeptides to HR1 by Surface Plasmon Resonance (BIAcore 3000); conditions: SPR, 25° C., immobilized HR1 peptide Biotin-T-2324, 1:1 Langmuir model
[3] = tested on: pseudotyped NL-Bal viruses; conditions: pseudotyped NL-Bal virus, single-cycle, JC53-BL cells
[4] = tested on: HIV-1 JR-CSF virus
Experimental: Human PBMC were isolated from buffy-coats (obtained from the Stanford Blood Center) by a Ficoll-Paque (Amersham, Piscataway, N.J., USA) density gradient centrifugation according to manufacturer's protocol. Briefly, blood was transferred from the buffy coats in 50 ml conical tubes and diluted with sterile Dulbecco's phosphate buffered saline (Invitrogen/Gibco) to a final volume of 50 ml. Twenty-five ml of the diluted blood was transferred to two 50 ml conical tubes, carefully underlayerd with 12.5 ml of Ficoll-Paque Plus (Amersham Biosciences) and centrifuged at room temperature for 20 min. at 450×g without braking. The white cell layer was carefully transferred to a new 50 ml conical tube and washed twice with PBS. To remove remaining red blood cells, cells were incubated for 5 min. at room temperature with ACK lysis buffer (Biosource) and washed one more time with PBS. PBMC were counted and incubated at a concentration of 2-4×10^6 cells/ml in RPMI1640 containing 10% FCS (Invitrogen/Gibco), 1% penicillin/streptomycin, 2 mM L-glutamine, 1 mM sodium-pyruvate, and 2 μg/ml Phytohemagglutinin (Invitrogen) for 24 h at 37° C. […] Virus production was measured at the end of infection by using p24 ELISA (HIV-1 p24 ELISA #NEK050B) using the sigmoid dose-response model with one binding site in Microsoft Excel Fit (version 3.0.5 Build12; equation 205; Microsoft).

Molecule	Antiviral activity % Inhibition at 20 μg/mL [1]	KA [2]	pKd [2]	ka [2]	kd [2]	Antiviral activity % Inhibition at 20 μg/mL [3]	Antiviral activity IC50 [4]	Antiviral activity IC50 ([3]; 3 day incubation, luciferase activity)
4976/4818: anti-IGF-1R IgG1: light chain 4976 with T-651 N-terminal (including variable domain), wt heavy chain 4818 (QIWNNMTWMEWDREINNYTSLIHSLIEESQNQQEKNEQELLGGGGSGGGGSGGGGSGAS; also: fused N-terminally to light chain of anti-IGF-1R IgG1)	38%	2.63e+10 M⁻¹	10.42	923000 M⁻¹ s⁻¹	3.51e-05 s⁻¹	17%	–	–
CC[C@H](C)[C@H](NC(=O)[C@H](C)NC(=O)[C@H](CCCNC(=N)N)NC(=O)[C@H](CC(=O)O)NC(=O)[C@H](Cc1c[nH]c2ccccc12)NC(=O)[C@H](C)NC(=O)[C@H](CCC(=O)O)NC(=O)[C@H](Cc1c[nH]c2ccccc12)NC(=O)[C@@H](NC(=O)[C@@H](NC(C)=O)[C@@H](C)O)[C@@H](C)O)C(=O)N[C@@H](C)C(=O)N[C@@H](CCC(=O)O)C(=O)N[C@@H](Cc1ccc(O)cc1)C(=O)N[C@@H](C)C(=O)N[C@@H](C)C(=O)N[C@@H](CCCNC(=N)N)C(=O)N[C@H](C(=O)N[C@@H](CCC(=O)O)C(=O)N[C@@H](C)C(=O)N[C@@H](CC(C)C)C(=O)N[C@H](C(=O)N[C@@H](CCCNC(=N)N)C(=O)N[C@@H](C)C(=O)N[C@@H](C)C(=O)N[C@@H](CCC(N)=O)C(=O)N[C@@H](CCC(=O)O)C(=O)N[C@@H](CCC(N)=O)C(=O)N[C@@H](CCC(N)=O)C(=O)N[C@@H](CCC(=O)O)C(=O)N[C@@H](CCCCN)C(=O)N[C@@H](CC(N)=O)C(=O)N[C@@H](CCC(=O)O)C(=O)N[C@@H](C)C(=O)N[C@@H](C)C(=O)N[C@@H](CC(C)C)C(=O)N[C@@H](CCCNC(=N)N)C(=O)N[C@@H](CCC(=O)O)C(=O)N[C@@H](CC(C)C)C(N)=O)[C@@H](C)CC)[C@@H](C)CC [Compound T-2635]	–	–	–	–	–	–	0.004 µg/mL	–
enfuvirtide	–	–	–	–	–	–	–	0.38 µg/mL
4972/4802: anti-IGF-1R IgG1: wt light chain 4802, heavy chain 4972 with T-2635 conjugated C-terminally via linker SEQ ID NO: 11 (GGGGSGGGGSGGGGSGGTTWEAWDRAIAEYAARIEALIRAAQEQQEKNEAALREL; also: fused C-terminally to heavy chain of anti-IGF-1R IgG1)	43%	1.01e+10 M⁻¹	10.01	786000 M⁻¹ s⁻¹	7.76e-05 s⁻¹	27%	–	–
4970/4802: anti-IGF-1R IgG1: wt light chain 4802, heavy chain 4970 with T-651 conjugated C-terminally via linker SEQ ID NO: 11 (GGGGSGGGGSGGGGSGGNMTWMEWDREINNYTSLIHSLIEESQNQQEKNEQELL; also: fused C-terminally to heavy chain of anti-IGF-1R IgG1)	20%	9.11e+10 M⁻¹	10.96	1.01e+06 M⁻¹ s⁻¹	1.11e-05 s⁻¹	15%	–	–
